Patent CN117062835A (ONCORIS PONS, dated 2023)

Key:
加His标签的重组人类CD163(R&D …) [1] = molecular target: T1, 加His标签的重组人类CD163(R&D Systems，编号1607-CD-050)蛋白 (human, UniProt Q86VB7 46-1050); assay: ELISA EC50 ratio; lower end of the range, tied to V4 through the highest EC50 of Table 7
T1 construct: Bought recombinant protein coated on ELISA plates; also called 重组CD163蛋白; huCD163; not shown: His tag

人类CD163蛋白(生物素化) = molecular target: T2, 人类CD163蛋白(生物素化) (human, UniProt Q86VB7 46-1050, limits assumed, biotinylated (sites not given)); assay: BLI, b-huCD163 on SA biosensor, four antibody concentrations
T2 construct: also called b-huCD163; 生物素标记的人类CD163

加His标签的重组人类CD163(R&D …) [2] = molecular target: T1, 加His标签的重组人类CD163(R&D …); assay: ELISA EC50 ratio; upper end of the range, tied to V1 through the lowest EC50 of Table 7

T1 sequence (Q86VB7 46-1050 limits assumed): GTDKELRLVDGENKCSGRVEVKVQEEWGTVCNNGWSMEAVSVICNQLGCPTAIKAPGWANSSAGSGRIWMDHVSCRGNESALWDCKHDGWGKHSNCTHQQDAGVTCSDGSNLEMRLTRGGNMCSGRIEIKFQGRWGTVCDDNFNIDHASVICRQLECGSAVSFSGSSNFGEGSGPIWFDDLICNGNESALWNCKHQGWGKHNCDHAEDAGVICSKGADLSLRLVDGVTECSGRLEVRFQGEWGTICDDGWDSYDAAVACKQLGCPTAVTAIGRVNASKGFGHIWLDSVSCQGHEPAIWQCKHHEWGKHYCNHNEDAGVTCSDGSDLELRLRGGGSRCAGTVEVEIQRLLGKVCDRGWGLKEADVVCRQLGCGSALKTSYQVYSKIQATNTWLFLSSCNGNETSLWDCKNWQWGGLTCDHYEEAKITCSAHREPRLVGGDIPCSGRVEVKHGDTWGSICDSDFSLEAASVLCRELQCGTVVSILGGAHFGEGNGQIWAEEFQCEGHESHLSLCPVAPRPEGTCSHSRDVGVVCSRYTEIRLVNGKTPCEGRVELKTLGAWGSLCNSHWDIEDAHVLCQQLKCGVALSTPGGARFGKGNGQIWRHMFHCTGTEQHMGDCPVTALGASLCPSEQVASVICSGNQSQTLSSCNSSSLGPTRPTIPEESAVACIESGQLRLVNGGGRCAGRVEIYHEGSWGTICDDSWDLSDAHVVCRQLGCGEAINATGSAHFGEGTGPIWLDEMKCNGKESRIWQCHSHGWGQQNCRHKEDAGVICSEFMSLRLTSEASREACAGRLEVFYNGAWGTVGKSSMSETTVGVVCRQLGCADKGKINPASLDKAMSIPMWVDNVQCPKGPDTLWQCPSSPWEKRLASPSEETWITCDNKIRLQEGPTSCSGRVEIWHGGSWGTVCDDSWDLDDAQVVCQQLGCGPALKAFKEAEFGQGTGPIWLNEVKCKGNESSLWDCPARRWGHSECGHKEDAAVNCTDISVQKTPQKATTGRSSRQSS
T2 sequence (Q86VB7 46-1050 limits assumed): as above

Binder	fold stronger binding than AB101 parental antibody (加His标签的重组人类CD163(R&D …) [1])	fold increase of affinity against AB101 parental Ab (人类CD163蛋白(生物素化))	fold stronger binding than AB101 parental antibody (加His标签的重组人类CD163(R&D …) [2])
变体4(V4) (antibody, V domains shown, also called 克隆4) VH: EVQLVESGGGVVQPGRSLRLSCAASGFTFSSYVMHWVRQAPGKGLEWVAVISEDGSNKYNADSVKGRFTISRDNSKNTLYLQMNSLRAEDTAVYYCARENVRPYYDFWSGYSSEYYYYGLDVWGQGTTVTVSS VL: not shown	27 fold	~3760 fold	–
变体1(V1) (antibody, V domains shown) VH: EVQLVESGGGVVQPGRSLRLSCAASGFTFSSYDMHWVRQAPGKGLEWVAVISEDGSNKYNADSVKGRFTISRDNSKNTLYLQMNSLRAEDTAVYYCARENVRPYYDFWSGYSSEYYYYGLDVWGQGTTVTVS VL: not shown	–	–	45 fold
